Molecular target: the molecule itself
Experiment: SEC

B1: recombinant FOG-3 (sizing column, Figure S2A) (domain or fragment)
chain: MYTEVRELVNFVCRYLFGHIPRRPVGIFGAELGNYLVSHFSSTWDVHHPKNGEMKRMINTTTSLCFASSAEEAGVPPSDVLRLLPTNMIIFANPGHVFVRLSENGIETPIWIGDVNCDENYQSVPEYVVRTAAIRAE
stoichiometry N: 2
